Measured values: patent EP1313853B1

Biological target: Fas (Apo-1, CD95) (human) (UniProt P25445)
Assay: cell-based or functional assay

Sequence of UniProt P25445 (P25445 26-335): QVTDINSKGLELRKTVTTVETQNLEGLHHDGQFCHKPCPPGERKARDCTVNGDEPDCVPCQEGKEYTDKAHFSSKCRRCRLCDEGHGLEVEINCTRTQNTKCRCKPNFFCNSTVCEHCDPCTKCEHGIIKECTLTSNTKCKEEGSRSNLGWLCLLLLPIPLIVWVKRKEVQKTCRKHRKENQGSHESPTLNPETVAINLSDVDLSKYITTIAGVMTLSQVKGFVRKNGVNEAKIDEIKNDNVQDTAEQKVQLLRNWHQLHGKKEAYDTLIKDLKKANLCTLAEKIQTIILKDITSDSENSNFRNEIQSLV

With “agonistic anti-Fas monoclonal antibodies (clone CH-11: Coulter-Immunotech, Marseille, France) (antibody)” the % INHIBITION of Jurkat human leukemia T cell proliferation (MTT), 0.02 µg/ml antibody, no sequence was 16%, the % INHIBITION of Jurkat human leukemia T cell proliferation (MTT), 0.2 µg/ml antibody, no sequence was 33% and the % INHIBITION of UMUC-3 bladder cancer cell proliferation (MTT), 0.02 µg/ml antibody, no sequence was 7%. The % INHIBITION of UMUC-3 bladder cancer cell proliferation (MTT), 0.2 µg/ml antibody, no sequence was 17%.
